{"source": "the DeepSol protein solubility set"}
{"test": "soluble on expression in E. coli; label from the status in PepcDB or PDB records"}
{"sequence": "MGSDKIHHHHHHLELSSHFTPEKIQVGISSCLLGQKVRFDGGHKNSYYCDVTLREHVEFVPVCPEMSIGLGAPRKSIRQVRDGDTLLIQSGDGSLDVTDKLNTFSQQKVAELDFLGGYILCAKSPTCGMERVTEYKIGTNNGSKAGVGVFAKVLMETYPHLPVEEEGRLNDLVLRENFITRLYAYHDWFSMLASGLTKHKLIQFHSRYKYLIMAHSPKWYRALGPILADIQDLSASADAYFDGFMTALKIKATRKNHTSTLQHIQGYFKKHLSAGQKQELSESIDKYRQGLLPLLVPITLINHYLREFPTPYIESQVYLNPHPEELKLRYAY", "soluble on expression in E. coli": "not soluble"}
{"sequence": "MSLTEYVDAVPAASMTVCTVQHTDTTPQHSINEDRVIPLDSNKGIADMEFGDAHTLAHRVSASAERMYRFSSIETTQFIKILLRKMAARMASLASCHTHVYASSHSLPWDSACEHYIFGMRRILIEGHHHHHH", "soluble on expression in E. coli": "not soluble"}
{"sequence": "MAASRALSLTAEAVRAVIPRRSGRLLTRWETTSSIPEAGEGQIRLTDSCVQVGGRTRGGGAQEGSRRLPSHPSRYLRLLGILDPLS", "soluble on expression in E. coli": "not soluble"}
{"sequence": "MSLGLTPHAPSPLADRLRPQSLDEVVGQQHLLGPEGPIGRMAAARRLASMILWGPPGTGKTTIARLLAKAGGYEFMQISAVFSGVADLKKAFEQARARRMAGQSTLLFVDEIHRFNRAQQDGFLPFVEEGIVTLVGATTENPSFELNGALLSRCQVFVLKRLTEESLELLLQRAEAAENRPLPIDAEARSALVAMADGDGRYLLTLAETLFSIGTDTPLNPTQLGQFLQKRRPAYDKDREEHYNLISALHKSVRGSDPDAALYWLARMLEGGEDPLFIARRLVRMASEDIGAADPLSLLLTTAAKDAYDFLGSPEGELALAQAVVHMASAPKSNAVYTAYKAARRAAKETGSLMPPSHILNAPTKLMKSLGYGDGYAYDHDVEGGVSGQNYFPDGMERRRFYEPKPVGAEAKVRERLEAWGKVRKDGKEGHHHHHH", "soluble on expression in E. coli": "soluble"}
{"sequence": "MSLNEMEKRPEDTRVVVGMSGGVDSSVAALLLKEQGYDVIGIFMKNWDDTDENGFCTATEDYEDVIRVCNQIGIPYYAVNFEKQYYEKVFQYFLDEYKAGRTPNPDVLCNKEIKFKAFLEHALSLGADYLATGHYARVDRSGGKVRMLRGIDENKDQTYFLNQLTEDTLSKVMFPIGELQKSRVREIAKEAELATATKKDSTGICFIGERNFKTFLSQYLPAQPGDMMTMDGEVKGRHDGLMYYTIGQRHGLGIGGSGEPWFAVGKDLEKNILYVDQGFHNPLLYSDKITATNISWVRSDIMKGEEISCTAKFRYRQEDHKVTVRMTGEGEAEVIFDEQVRAVTPGQAVVFYDGEECLGGGTIDDVYKDGTKLWYVEGHHHHHH", "soluble on expression in E. coli": "soluble"}
{"sequence": "GMTVRDENYFTEKYGLTRTHSDVLAAAKVVAPGRTLDLGCGNGRNSLYLAANGYDVTAWDKNPASMANLERIKAAEGLDNLQTDLVDLNTLTFDGEYDFILSTVVMMFLEAQTIPGLIANMQRCTKPGGYNLIVAAMDTPDFPCTVGFPFAFKEGELRRYYEGWDMLKYNEDVGELHRTDENGNRIKLRFATMLARKTA", "soluble on expression in E. coli": "soluble"}
{"sequence": "MNFFTSPFSGIPLDQQVTNPNIIVGKHSYYSGYYHGHSFDDCVRYLHPERDDVDKLVIGSFCSIGSGAVFMMAGNQGHRSDWISTFPFFYQDNDNFADARDGFTRSGDTIIGHDVWIGTEAMIMPGVKIGHGAIIASRSVVTKDVAPYEVVGSNPAKHIKFRFSDVEIAMLLEMAWWNWPESWLKESMQSLCSSDIEGLYLNWQSKART", "soluble on expression in E. coli": "not soluble"}
{"sequence": "MSIEPTQVSREAELGAFLRTHRERLTPSDVGLPPGRRRRTPGLRREEVAQLSGLSATWITWLEQGRPVAMSVRALGSLAEALRLSRAERAYLFALAGKPEPRQDAEPAVPVALLASVQAISGPAYLLDRQWTARAWNAAAADLFVGWLDAASGERNLLRAMFLPTALQALVEDWPHRAARLVAEFRVHSLRHAEDPPTRALIERLMEDSPAFAAAWRSQDVDERQGGRRGFHHPMRGLVYFEQLTLVPPAAPGMMLVMLLPETP", "soluble on expression in E. coli": "soluble"}
{"sequence": "MNVSTSTFQTRRRRLKKVEEEENAATLQLGQEFQLKQINHQGEEEELIALNLSEARLVIKEALVERRRAFKRSQKKHKKKHLKHENANDETTAVEDEDDDLDEDDVNADDDDFMHSETREKELESIDVLLEQTTGGNNKDLKNTMQYLTNFSRFRDQETVGAVIQLLKSTGLHPFEVAQLGSLACDTADEAKTLIPSLNNKISDDELERILKELSNLETLY", "soluble on expression in E. coli": "soluble"}
{"sequence": "MAEETQTVETVEEQVVPEAKQPQDEKKYTDADVDAIIDKKFAKWKSEQEAEKSEAKKMAKMNEKEKADYEKQKLLDELQELKNDKTRNELTAVARQMFAESEINVNDDVLGLVVTLDAEQTKANVTTLANAFAKVIADDRKALVRQTTPSTGGGLSKQTNYGANLASKAAQQSTKLF", "soluble on expression in E. coli": "not soluble"}
{"sequence": "MILVFLDNMASIKDLNLIDEINDSSNLKLINDRLKLLFWTKNPEITDEENKKKYLDFLNEYWDTLRAYGAGDLELFPDKINYLTLILAANSKNHNIYIKKLAEKYAEKIPIEDGDSKINIWDFIDVAANSRNNDLHLERMILEGDTVLLNQKNQSIYNFEKIRLKLKNYVEKVRNAEMPKEIKDLLVKKSEEAFEGINIGYNIESGIKVSTKEYSGEIPEDWHPPCMREILNDILSGGSPSHYARRSFVVYRFVSQFDPNLRPIEEGIITNRSAQDIATEEQIERFLDEIINIFKSVGDFDVEKTKYYISHNIGYKVANHITHCEYCKNWRDDGGKGLGYYCRPDSTCSRKDIIHPLDYLCHNINRHVKKSELEHHHHHH", "soluble on expression in E. coli": "not soluble"}
{"sequence": "MGSDKIHHHHHHMRFMFLHPRLSLEGDPLGLMQLSASLKQRGHIVGLTLLTEDYIEAIRSFQPDMLGVSLMSSDAVMMHQVLNKVRMVFPDLFIIVGGPHPTFDPSCLMVLPVNAICVGEGDEALVEALEQYGREGHVEGIRNVGTVTTPVTLRPLVSDLDDLPFIDRDIVYAKNHIVRDFPLKTFAASRGCHFKCTYCFNHAYNAMYAGLGHVVRRRSVDHLIAEMRDVIARYPTSYIKISDDSFTYRVDSWLEEFAEKYPRLIGLPFYCLLRADVVTRDMVRLLREAGCRSVCMSIEAGAETVRRDVLNRRVSNEKIIESFDLFNEAGIAIYTNSMLAMPRATLADDIATLDLNIRCRPTLGHFTIMAPFPGTRIHDMCEKDGILPERCGGDGDIPTSTGELSKLTTYTDEEKNIQKNIVLLGPLVIRFPVLRGVFLRCLAKLPSNNILFKCIYTVTKNLLFKRIVPVRMSPLLMLRIAIAQVKAARTQVG", "soluble on expression in E. coli": "not soluble"}
{"sequence": "MDMVAQALELSRKPHVVIATPGRLADHLRSSNTFSIKKIRFLVMDEADRLLEQGCTDFTVDLEAILAAVPARRQTLLFSATLTDTLRELQGLATNQPFFWEAQAPVSTVEQLDQRYLLVPEKVKDAYLVHLIQRFQDEHEDWSIIIFTNTCKTCQILCMMLRKFSFPTVALHSMMKQKERFAALAKFKSSIYRILIATDVASRGADQPPLPPGAWTSLRYRWSSTTTPPGSPRSTSTESAGRPVQGGRVRPSRW", "soluble on expression in E. coli": "soluble"}
{"sequence": "MAGRLREMRCELSFLKNADGSACFSQGATCIWASCSGPGDVHASKASDEAMTLDISYRANCGDNKFNVLNNIIHSTLSNAINLELFPHTTISVTVHGIQDDGSMGAVAINGACFALLDNGMPFETVFCGVLIVRVKDELIIDPTAKQEAASTGRVLFSVCKGSDGHPEVCAMDAIGHWDFIQLEAAWSLAQPSASAIFDFYKTVMKRKLSVDEQLEHHHHHH", "soluble on expression in E. coli": "soluble"}
{"sequence": "MKYIIIGLGNYGHVLAEELSTLGHEVIGADLDEGRVDSIKDKIATAFVIDATDEQSLSVLPLNSVDMVIVAIGENFGASIRVVAMLKQKQVKHIYARAIDGVHKAVLEAFGLEKILTPEEDAARSLVQLLDFGTKMETFRVDSEYYVVKFNVPEKFVGYFVNELNLDEEFNLKLIGLKRSNTIKNCLGISLVEHKVVNELPEDAKIRPDDVLVCYGKYSDFQKLWKALLEHHHHHH", "soluble on expression in E. coli": "soluble"}
{"sequence": "MKVLFLTANEFEDVELIYPYHRLKEEGHEVYIASFERGTITGKHGYSVKVDLTFDKVNPEEFDALVLPGGRAPERVRLNEKAVSIARKMFSEGKPVASICHGPQILISAGVLRGRKGTSYPGIKDDMINAGVEWVDAEVVVDGNWVSSRVPADLYAWMREFVKLLK", "soluble on expression in E. coli": "soluble"}
{"sequence": "SNRLDGKVAIITGGTLGIGLAIATKFVEEGAKVMITDRHSDVGEKAAKSVGTPDQIQFFQHDSSDEDGWTKLFDATEKAFGPVSTLVNNAGIAVNKSVEETTTAEWRKLLAVNLDGVFFGTRLGIQRMKNKGLGASIINMSSIEGFVGDPSLGAYNASKGAVRIMSKSAALDCALKDYDVRVNTVHPGYIKTPLVDDLPGAEEAMSQRTKTPMGHIGEPNDIAYICVYLASNESKFATGSEFVVDGGYTAQ", "soluble on expression in E. coli": "soluble"}
{"sequence": "MLKGILYIIGIYQRYLSPLKGPTCRFYPSCSRYAHESLTRYGLVKGLWLTTIRILKCHPFHPGGVDPVKLEHHHHHH", "soluble on expression in E. coli": "not soluble"}
{"sequence": "MNNSNENDVILAWWDWGHFITYYARRSPIAQGGPSVGVALYLLGKLNENWAINLGVDYVIVSYYDFLKFGAILSTANLSKRYNIRGYGLVVLPLRASTGALIFENRGYRAIVRHDKSWNAVIIYNGQMIYPRKLYVEHKEGVQEIKPPESNSNTYLYVNLNYGLEHHHHHH", "soluble on expression in E. coli": "not soluble"}
{"sequence": "MYGKLNDLLEDLQEVLKHVNQHWQGGQKNMNKVDHHLQNVIEDIHDFMQGGGSGGKLQEMMKEFQQVLDEIKQQLQGGDNSLHNVHENIKEIFHHLEELVHR", "soluble on expression in E. coli": "soluble"}
{"sequence": "MNIKQFNEHITSLFGEHLHKYGDDEYGFTHISKDEFHKIGYTTNLTLETIEEAYRNGVDMIVTHHAPWSFLFGMEEACIEKLKQYEMNHFWVHLPLDFVKFGTCTSLFNGIGIDTILEYSTYEEEELPGIGEYKEAIPFSNLVGKLEERMEEKVKSWRNHDKPVKRIAILTGAGNNTNLIERALEKGCDTYITGEKTLYTVQHAKFKGINLIVGSHTFTEVFGVESLAHKLKERDNSIEITRLNEEHLELEHHHHHH", "soluble on expression in E. coli": "not soluble"}
{"sequence": "MDKLDTLTLFVRIVERGSFSAAAADLGVSRPVATAAIKALEVSLGARLLHRTTRHVRPTAEGSLYYQRCVSILAALEEANRSAGGSISGTIRVDVAGNLARTLLLPALPQFLARYPDITLQIGESERDVDLVREGVDCVIRGGHLPDSEMICRPLAGLQEITCASPTYLARYGTPHTIEGLTGHVMIGFVSSRTQRTLPLSFTQDGRQSEVSLPCRLLTSDADVGAEAARLGFGLYQAPLPRLEADLASGALTEVLADFRPAPLPLSLLYPSNRQLSARVQVFIDWVTALMKPPLAQQASGRLK", "soluble on expression in E. coli": "not soluble"}
{"sequence": "MGKTFTVGSLKHAVRSSERPISAAPPKPDGPSAVRPSVIQIEQKGKTFTVQPAPGVSLLDAALGQGVLLDHKCKKGTCGRCMVTVLAGAHLLAPKTRREREKTDQPAKRLACQAQIQ", "soluble on expression in E. coli": "not soluble"}
{"sequence": "MAHHHHHHMGLYKSIYFVDGGCCAVKFNAITGLKNRTYGEGANFAIPFLETPVVFDIRNKPTEVLTATGSRDLQTVNLAVRVLYQPHVSALPDIYRNVGMEYAETVLPSLVNEIIRAVIAQFNASDLLVKRPEVSNRIGVMLAERAKRFHIDITDVSITQMSFGKEYTSAVEAKQVAQQMAERAKWRVEQAEQEKEGAILLAKGEAEAAKLIGMAVQKNPAFITLRSLEASRTIADLMRQKGSGSFYIDSDTLSLNTQTIGH", "soluble on expression in E. coli": "not soluble"}
{"sequence": "MSDVSLKLSAKDIYEKDFEKTMARGYRREEVDAFLDDIIADYQKMADMNNEVVKLSEENHKLKKELEELRLRVATSRPQDNKSFSSNNTTTNTSSNNVDILKRISNLEKAVFGK", "soluble on expression in E. coli": "not soluble"}
{"sequence": "MRLFHELLGPLELPDRFSRIVSLAPNLTDALFALGLGERLVGRSAFCHRPAPVLALPVVASYTKTRLELLRSLKPDLVLLSTGVQREQALRLKEEGFPVYAVPLPTSPYGILENLSTLGHLLDLEERAVALAHELSGRYAALRGRFDLRVYFEMDLGGPITVGRGSYIAQALLHMGLKPIFLDVPQAYFAPDLEEVRRRAPDLFLYEPKPWGKNPLEKARALARERGWDFPVAATDGDELAHYGPMFFGFLEKLARRVEETLGQA", "soluble on expression in E. coli": "soluble"}
